Measured values: article PMC3808539 (2013)
Residue numbers refer to the chain shown, from its start. Numbers in names are those of the source. Ends that are not written are not given here.

T1: FMLLRRKAYV (Bacillus subtilis)
T1 chain: FMLLRRKAYV-OH

B1: CtpB R168F (enzyme)
chain: MADSERDKAMDKIEKAYELISNEYVEKVDREKLLEGAIQGMLSTLNDPYSVYMDKQTAKQFSDSLDSSFEGIGAEVGMEDGKIIIVSPFKKSPAEKAGLKPNDEIISINGESMAGKDLNHAVLKIFGKKGSSVSMKIQRPGTKKQLSFRIKRAEIPLETVFASEKKVQGHSVGYIAISTFSEHTAEDFAKALRELEKKEIEGLVIDVRGNPGGYLQSVEEILKHFVTKDQPYIQIAERNGDKKRYFSTLTHKKAYPVNVITDKGSASASEILAGALKEAGHYDVVGDTSFGKGTVQQAVPMGDGSNIKLTLYKWLTPNGNWIHKKGIEPTIAIKQPDYFSAGPLQLKEPLKVDMNNEDVKHAQVLLKGLSFDPGREDGYFSKDMKKAVMAFQDQNKLNKTGVIDTRTAETLNQQIEKKKSDEKNDLQLQTALKSLFVNLEHHHHHH
B2: CtpB S309A, proteolytically inactive mutant (enzyme)
chain: B1 chain with F126R, A185T, L215I, S267A, V402I
B3: CtpB R168A (enzyme)
chain: B1 chain with F126A
B4: isolated PDZ domain of CtpB (domain or fragment)
chain: SVYMDKQTAKQFSDSLDSSFEGIGAEVGMEDGKIIIVSPFKKSPAEKAGLKPNDEIISINGESMAGKDLNHAVLKIRGKKGSSVSMKIQRP

Assays:
[1] = biological target: peptide having an Ala-Tyr-Ala C terminus; assay: ITC
[2] = biological target: peptide having an Ala-Tyr-Ala C terminus; assay: ITC; peptide …
FMLLRRKAYV = biological target: T1, FMLLRRKAYV; assay: ITC

Binder	Kd [1] [µM]	Kd [2] [µM]	Kd (FMLLRRKAYV) [µM]
B1	40		
B2		6.5	
B3	21		
B4		2.3	0.9
